Source: patent US20170209564A1

Columns and labels:
Test in all cases: ELISA, coated CR6261, P. pastoris medium
91C4 = settings: remark: other sources report otherwise
84B8 = settings: remark: other sources report otherwise
86G2 = settings: remark: other sources report otherwise
1F2 = settings: remark: other sources report otherwise
79D5 = settings: remark: other sources report otherwise
76A10 = settings: remark: other sources report otherwise
66C8 = settings: remark: other sources report otherwise
67C11 = settings: remark: other sources report otherwise
8D7 = settings: remark: other sources report otherwise
97G10 = settings: remark: other sources report otherwise
57B8 = settings: remark: other sources report otherwise
71C4 = settings: remark: other sources report otherwise
29C2 = settings: remark: other sources report otherwise
88C5 = settings: remark: other sources report otherwise
53G10 = settings: remark: other sources report otherwise
26H1 = settings: remark: other sources report otherwise
8A10 = settings: remark: other sources report otherwise
86G3 = settings: remark: other sources report otherwise
51G10 = settings: remark: other sources report otherwise
91F10 = settings: remark: other sources report otherwise
84D3 = settings: remark: other sources report otherwise
71E7 = settings: remark: other sources report otherwise
78F11 = settings: remark: other sources report otherwise
12C6 = settings: remark: other sources report otherwise
55H2 = settings: remark: other sources report otherwise
36H2 = settings: remark: other sources report otherwise
27B10 = settings: remark: other sources report otherwise
56D2 = settings: remark: other sources report otherwise
63C3 = settings: remark: other sources report otherwise
36E4 = settings: remark: other sources report otherwise
56F8 = settings: remark: other sources report otherwise
6E12 = settings: remark: other sources report otherwise
61A9 = settings: remark: other sources report otherwise
89F11 = settings: remark: other sources report otherwise
96H8 = settings: remark: other sources report otherwise
85A7 = biological target: 85A7
56F4 = settings: remark: other sources report otherwise
69G8 = settings: remark: other sources report otherwise
90A9 = settings: remark: other sources report otherwise
84E10 = settings: remark: other sources report otherwise
76D10 = settings: remark: other sources report otherwise
48D11 = settings: remark: other sources report otherwise
60A2 = settings: remark: other sources report otherwise
74D7 = settings: remark: other sources report otherwise
96G5 = settings: remark: other sources report otherwise
58C8 = settings: remark: other sources report otherwise
36D6 = settings: remark: other sources report otherwise
69D2 = settings: remark: other sources report otherwise

B1: CR6261 (antibody, V domains shown)
VH: EVQLVESGAEVKKPGSSVKVSCKASGGPFRSYAISWVRQAPGQGPEWMGGIIPIFGTTKYAPKFQGRVTITADDFAGTVYMELSSLRSEDTAMYYCAKHMGYQVRETMDVWGKGTTVTVSS
VL: QSVLTQPPSVSAAPGQKVTISCSGSSSNIGNDYVSWYQQLPGTAPKLLIYDNNKRPSGIPDRFSGSKSGTSATLGITGLQTGDEANYYCATWDRRPTAYVVFGGGTKLTVLG
Work on B1 yielded a CR6261 binding signal (91C4) of 1.16e+06, a CR6261 binding signal (84B8) of 582000 and a CR6261 binding signal (86G2) of 69700. For the same binder, the CR6261 binding signal (1F2) was 149000, the CR6261 binding signal (79D5) was 703000 and the CR6261 binding signal (76A10) was 137000. The CR6261 binding signal (66C8) was 185000, the CR6261 binding signal (67C11) was 209000 and the CR6261 binding signal (8D7) was 73400. For the same binder, the CR6261 binding signal (97G10) was 253000, the CR6261 binding signal (57B8) was 58400 and the CR6261 binding signal (71C4) was 1.35e+06. It also gave a CR6261 binding signal (29C2) of 178000, a CR6261 binding signal (88C5) of 471000 and a CR6261 binding signal (53G10) of 108000. For the same binder, the CR6261 binding signal (26H1) was 79700, the CR6261 binding signal (8A10) was 360000 and the CR6261 binding signal (86G3) was 184000. For the same binder, the CR6261 binding signal (51G10) was 215000, the CR6261 binding signal (91F10) was 14800 and the CR6261 binding signal (84D3) was 84400. It also gave a CR6261 binding signal (71E7) of 203000, a CR6261 binding signal (78F11) of 84100 and a CR6261 binding signal (12C6) of 289000. It also gave a CR6261 binding signal (55H2) of 58100, a CR6261 binding signal (36H2) of 171000 and a CR6261 binding signal (27B10) of 187000. For the same binder, the CR6261 binding signal (56D2) was 146000, the CR6261 binding signal (63C3) was 188000 and the CR6261 binding signal (36E4) was 196000. For the same binder, the CR6261 binding signal (56F8) was 235000, the CR6261 binding signal (6E12) was 373000 and the CR6261 binding signal (61A9) was 383000. It also gave a CR6261 binding signal (89F11) of 84800, a CR6261 binding signal (96H8) of 206000 and a CR6261 binding signal (85A7) of 236000. For the same binder, the CR6261 binding signal (56F4) was 186000, the CR6261 binding signal (69G8) was 481000 and the CR6261 binding signal (90A9) was 414000. The CR6261 binding signal (84E10) was 255000, the CR6261 binding signal (76D10) was 114000 and the CR6261 binding signal (48D11) was 121000. It also gave a CR6261 binding signal (60A2) of 92700, a CR6261 binding signal (74D7) of 359000 and a CR6261 binding signal (96G5) of 108000. The CR6261 binding signal (58C8) was 277000, the CR6261 binding signal (36D6) was 71300 and the CR6261 binding signal (69D2) was 446000.
